Assay results taken from PMC3154745.

Molecular target: Full length mammalian HP1β (human or mouse (sequences identical)) (UniProt P83916)
Experiment: AUC

Full length mammalian HP1β, P83916 1-185 (natural protein; other documents disagree on this pair), sequence (P83916 whole entry): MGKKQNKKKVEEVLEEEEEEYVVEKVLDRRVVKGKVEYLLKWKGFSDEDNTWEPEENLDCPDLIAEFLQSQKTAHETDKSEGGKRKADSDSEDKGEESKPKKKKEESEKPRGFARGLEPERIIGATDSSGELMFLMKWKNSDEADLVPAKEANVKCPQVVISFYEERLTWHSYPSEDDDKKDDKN

Substance: Full length mammalian HP1β, P83916 1-185 (natural protein; other documents disagree on this pair)
- Kd: 500 nM
